From the supplement of paper PMC10724198
± gives the standard deviation of the averaged measurements.

Tests used:
Saccharomyces cerevisiae [1] = assay: protein stability index of tFT-peptide fusion (C-terminal peptide) (PSI (0-1 scale)); higher = more stable (slower turnover)
Method: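 MPS profiling in S. cerevisiae of the tFT-X12 degron library: putative degron peptides plus stable controls, 12 aa, fused to the C-terminus of a sfGFP-mCherry timer. Cells are FACS-sorted into 8 mCherry/sfGFP bins and deep-sequenced. PSI runs from 0 (unstable) to 1 (stable). Backgrounds are wild type, das1Δ and doa10Δ at 30 °C, and wild type, das1Δ, cdc34-1 and cdc53-1 at 37 °C; 2-3 technical replicates each.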

Saccharomyces cerevisiae [2] = assay: as above; settings: genetic background: wild type; temperature: 30 C
[3] = genetic background: cdc34-1, temperature: 37 C
[4] = genetic background: cdc53-1, temperature: 37 C
[5] = genetic background: das1 deletion, temperature: 30 C
[6] = genetic background: das1 deletion, temperature: 37 C
[7] = genetic background: doa10 deletion, temperature: 30 C
[8] = genetic background: wild type, temperature: 30 C
[9] = genetic background: wild type, temperature: 37 C
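Further: PSI is a weighted mean of sequencing reads over stability bins, variants kept only with over 10 reads, mCherry proximal and sfGFP distal, peptide attached via GGGS linker.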

| Sequence | protein stability index (Saccharomyces cerevisiae [1]; [3]) | protein stability index (Saccharomyces cerevisiae [1]; [4]) | protein stability index (Saccharomyces cerevisiae [1]; [5]) | protein stability index (Saccharomyces cerevisiae [1]; [6]) | protein stability index (Saccharomyces cerevisiae [1]; [7]) | protein stability index (Saccharomyces cerevisiae [1]; [8]) | protein stability index (Saccharomyces cerevisiae [1]; [9]) | protein stability index (Saccharomyces cerevisiae [2]) |
| --- | --- | --- | --- | --- | --- | --- | --- | --- |
| SRVHHLWAILVP | 0.231 ± 0.015 | 0.265 ± 0.0052 | 0.238 ± 0.034 | 0.3712 ± 0.0019 | 0.18 ± 0.0099 | 0.228 ± 0.026 | 0.339 ± 0.0039 | 0.345 ± 0.016 |
| FFRAYLQMYVTD | 0.412 ± 0.0053 | 0.471 ± 0.021 | 0.413 ± 0.029 | 0.4057 ± 0.0032 | 0.423 ± 0.032 | 0.416 ± 0.043 | 0.412 ± 0.0073 | 0.362 ± 0.018 |
| VCQVCVCFLFWR | 0.0977 ± 0.0034 | 0.0539 ± 0.0021 | 0.145 ± 0.032 | 0.181 ± 0.0077 | 0.27 ± 0.018 | 0.139 ± 0.016 | 0.169 ± 0.017 | 0.228 ± 0.043 |
| GVFRYKLILRKM | 0.527 ± 0.056 | 0.614 ± 0.018 | 0.586 ± 0.015 | 0.634 ± 0.017 | 0.269 ± 0.0066 | 0.272 ± 0.014 | 0.435 ± 0.012 | 0.337 ± 0.05 |
| FALVSLSFALVE | 0.4203 ± 0.00048 | 0.457 ± 0.019 | 0.306 ± 0.025 | 0.518 ± 0.0066 | 0.28 ± 0.0036 | 0.292 ± 0.036 | 0.472 ± 0.02 | 0.379 ± 0.034 |
| FCVLLFYCFFFF | 0.322 ± 0.011 | 0.322 ± 0.099 | 0.276 ± 0.039 | 0.38 ± 0.0096 | 0.314 ± 0.012 | 0.273 ± 0.032 | 0.335 ± 0.041 | 0.356 ± 0.03 |
| CCLGVIASFIVW | 0.247 ± 0.01 | 0.435 ± 0.15 | 0.284 ± 0.036 | 0.455 ± 0.024 | 0.236 ± 0.0065 | 0.254 ± 0.036 | 0.408 ± 0.0049 | 0.3579 ± 0.0021 |
| LGFFPSPVLCVF | 0.104 ± 0.056 | 0.104 ± 0.027 | 0.197 ± 0.024 | 0.209 ± 0.0036 | 0.171 ± 0.0087 | 0.193 ± 0.018 | 0.175 ± 0.0038 | 0.275 ± 0.02 |
| PPPNSSTSPPCS | 0.6572 ± 0.003 | 0.725 ± 0.017 | 0.661 ± 0.036 | 0.683 ± 0.011 | 0.681 ± 0.029 | 0.687 ± 0.0096 | 0.677 ± 0.013 | 0.196 ± 0.015 |
| SLPVSPLVRLLA | 0.563 ± 0.017 | 0.599 ± 0.0093 | 0.486 ± 0.026 | 0.611 ± 0.0096 | 0.127 ± 0.015 | 0.138 ± 0.02 | 0.2102 ± 0.0012 | 0.235 ± 0.021 |
| ALFLYNCVVVTD | 0.0493 ± 0.0086 | 0.137 ± 0.018 | 0.146 ± 0.04 | 0.25 ± 0.015 | 0.132 ± 0.011 | 0.143 ± 0.045 | 0.188 ± 0.056 | 0.136 ± 0.0097 |
| PETSRFALNEWG | 0.709 ± 0.04 | 0.748 ± 0.018 | 0.665 ± 0.0095 | 0.755 ± 0.0086 | 0.674 ± 0.043 | 0.68 ± 0.02 | 0.717 ± 0.011 | 0.727 ± 0.059 |
| LISGVCLRVKVG | 0.55 ± 0.031 | 0.597 ± 0.017 | 0.452 ± 0.029 | 0.6276 ± 0.00027 | 0.16 ± 0.016 | 0.193 ± 0.015 | 0.3637 ± 0.0019 | 0.346 ± 0.046 |
| VVWFCGFFFVMV | 0.386 ± 0.0054 | 0.449 ± 0.029 | 0.356 ± 0.036 | 0.509 ± 0.016 | 0.365 ± 0.031 | 0.325 ± 0.03 | 0.465 ± 0.012 | 0.399 ± 0.032 |
| LVWDLFRCFSML | 0.582 ± 0.018 | 0.7165 ± 0.001 | 0.647 ± 0.032 | 0.759 ± 0.038 | 0.23 ± 0.0054 | 0.228 ± 0.021 | 0.351 ± 0.029 | 0.242 ± 0.026 |
